Reference: the RNAGym collection of RNA variant scans (doi:10.7554/elife.90254)

B1: OR4K15 (parent)
chain: GUUAACGGUCAUAGGCCAUGGAAACUAGGAGCACCAUUUCGCUGCCAGUGAAGAAAUGAACAAAGAAAAUCUGGGCCAGGCAGGCAUCAAAAGAAAUAGUCUUGCGCUCAACCAGAAAGUCUGUAAUCAUUUUAAGGGUA

Variants of: B1
Experiment: self-cleavage, relative activity (ratio to wild type); higher = more cleavage; in vitro, sequencing; the parent is a self-cleaving ribozyme

Variant | self-cleavage
U2C A134G | 1.59
U2C A134U | 0.69
A5G G21A | 1.23
A5G A66G | 0.87
U3C U26A | 1.76
U3C A67G | 0.97
A4U A63G | 0.87
U3C A55G | 1.1
U2G A11U | 1.51
U3C A51G | 1.12
U3A A64C | 1.33
U2C A135G | 1.32
U3C U130A | 1.27
U2C C76U | 0.23
U3G A51G | 1.72
U3C A33G | 0.79
A4G A56G | 1.02
A4G A96C | 0.67
A4G A96G | 1.4
A4G A92U | 1.44
A4G A92G | 1.18
U3C A91C | 0.84
U3C A91G | 0.84
U3C A91U | 1.11

Variant | self-cleavage
U3G A66G | 1.01
A4G G15C | 1.28
U2C C42U | 1.46
U3C C107G | 0.09
A5G U38G | 1.02
U3A A52U | 0.58
U3C A92G | 1.48
U2C U43C | 1.57
U2C U43A | 1
U2G A59G | 0.81
A5G G29C | 0.82
A4G A60U | 1.76
A5C U132C | 1.97
U2C U127A | 2.05
U2C U127C | 0.9
A5G A118C | 1
U3C C25U | 1.05
U2G A68G | 0.43
A4U A140G | 1.16
A5C A66G | 2.49
A5G A110G | 0.15
U2G A91G | 1.16
U2C U12G | 0.39
U2C U12C | 0.74

Variant | self-cleavage
A4C A62G | 0.88
A4C A62U | 0.93
U2C G53A | 1.18
U3C A30G | 0.92
U2G A56G | 1.23
A5G A96G | 1.21
A5G A140U | 1.38
U2C U108C | 0.03
U3A | 1
U3C | 1.1
U3G | 1.07
U2C G73A | 0.22
A5G A63G | 1.21
U3C U131C | 0.51
A4G U39C | 1.46
A4G U39G | 1.88
U2C G104C | 0.1
A5G C113U | 0.16
A4G A90G | 1.11
U3C A64G | 0.7
A4G C10U | 0.76
A5G G104A | 0.03
A5G A27U | 0.96
A4G U100C | 1.42

Variant | self-cleavage
A4U U108C | 0.09
A5G A52G | 1.07
A5G A52C | 1.39
A4G U124A | 0.48
A4G U124C | 0.5
U3C U132A | 1.58
A4G U38C | 1.15
U3A A36U | 1.61
U3A A36G | 0.85
A5C U108A | 0.07
U3A A30G | 0.63
U2C G106A | 0.03
A5G U9C | 0.82
A5C A52G | 0.46
A4G A69U | 1.14
A4G A69G | 1.31
A4G A69C | 0.53
A4G A134G | 0.91
U3C U39C | 1.15
U3A A78G | 0.14
A4G A52U | 0.92
A5G C107U | 0.02
A4G U103C | 1.19
A4G U103A | 1.27

Variant | self-cleavage
A4G U43G | 0.55
A4G U43A | 1.26
A4G C121A | 2.03
U3A U103C | 0.76
A5G A126G | 0.69
U2C G119A | 1.05
U2C C10A | 1.94
U3C U127C | 1.79
U3C G74U | 0.15
U2C G21A | 0.98
A4G U70A | 1.14
U3C U43A | 1.31
U3A G74A | 0.39
A4G A118G | 1.01
U3A U70C | 1.14
A4G A13G | 1.27
A4U U72A | 0.28
U2C U103A | 0.62
U3C A125U | 0.83
U3C A125G | 0.74
U3A A60U | 1.71
U3A U57C | 1.14
U2G A62G | 0.65
A5G G119U | 1.44

Variant | self-cleavage
U2G U103C | 0.85
U2G A78U | 0.4
A5G A47G | 1.37
A5G A47C | 1.22
A5G A90G | 1.11
A5G A90C | 1.08
U3C G119A | 1.44
U3C G119U | 0.99
A5G G7U | 1.05
A5G G7A | 0.91
A4G A64G | 1.21
A5G U12C | 1.02
U3C U72C | 0.25
A5C A68G | 1.63
A4G U72A | 0.22
A4G U72C | 0.21
A4G A89G | 1.34
A5G | 0.92
A5C | 1.21
U2G A135U | 1.03
A5C A111G | 0.16
A5G G73A | 0.21
A5C A134U | 2.1
U3A U38C | 1

Variant | self-cleavage
A5G G48A | 0.77
U2C G41A | 1.29
A5G U49C | 0.97
U2C A111G | 0.04
A5G G80A | 0.43
U3C U100C | 1.71
A5G A13G | 0.89
A5G A13U | 0.95
A5G A67C | 0.63
A5G A67G | 0.89
A4G G106A | 0.02
A4C A111G | 0.04
U3A A95G | 1.42
A4U G106A | 0.14
U3A U37C | 0.99
U2C G29A | 1.36
A5G U72A | 0.43
U3C A47G | 1.39
U3C A47U | 0.68
A5C C105U | 0.08
U2C U70C | 0.46
U2C U70A | 0.71
A5G A89G | 1.23
